From patent US20160298128A1 (University of California, published 2016)

B1: AtCV-HA (Arabidopsis thaliana chloroplast vesiculation protein, At2G25625, fused to an HA tag; expressed from DEX:AtCV-HA, line DEX-3) (other)
chain: ASLLKTTSKISCRRTENETEPRKNKCSFVLGVAATVVIGGIQINDVASVEAAVVKSPVEEMAAGVVPPRRWSDKRTCPPWLENSLETIVPENLPRPSAHRRLELAGLAKGDAPPVGVVMTRVNRGGCFSV
notes: Expressed in planta after DEX induction; also called DEX:AtCV-HA-3; full length AtCV; not shown: HA tag from vector pBAV 154
B2: AtCVΔC-HA (AtCV without the C-terminus conserved domain, HA tagged; DEX::AtCVΔC-HA plants) (other)
chain: ASLLKTTSKISCRRTENETEPRKNKCSFVLGVAATVVIGGIQINDVASVEAAVVKSPVEEMAAGVVPPR
notes: The making of the construct is not described; not shown: HA tag

Tests used:
[1] = biological target: T1, PsbO1, photosystem II subunit (endogenous protein in Arabidopsis protein extracts) (Arabidopsis thaliana, UniProt P23321 86-332); experiment: Co-IP with anti-HA magnetic beads from DEX-3 plant extracts, LC-MS/MS
T1 construct: Endogenous protein; also called PSII subunit PsbO1
Procedure: Four-day-old seedlings of Col-0 and transgenic plants DEX:AtCV-HA-3 (DEX-3) were cultured in MS/2 media containing […] for 4 days and then kept in the dark for additional 2 days. The shoots of plants were harvested, ground in liquid N2 and incubated at 4° C. for 3 h with lysis buffer provided by μMACS HA Isolation Kit (Miltenyl Biotec, San Diego, Calif., USA), containing Protease Inhibitor Cocktail (Sigma-Aldrich, St. Louis, Mo., USA). Co-immunoprecipitation was performed using anti-HA magnetic beads from μMACS HA Isolation Kit (Miltenyl Biotec, San Diego, Calif., USA) and incubating the cell lysis with beads at 4° C. for 2 h. LC-MS/MS analysis was performed in Genome Center of University California, Davis, as described previously (Shipman-Roston et al. 2010, Plant Physiol 152: 1297-1308). Scaffold (version Scaffold 3) was used to validate MS/MS-based peptide and protein identification. Peptide identifications were accepted if they could be established at >80.0% probability. […]
To elucidate mechanism(s) by which AtCV disrupts chloroplasts, we identified AtCV potential interacting proteins using co-immunoprecipitation (Co-IP) and subsequent identification of interactors by LC-MS/MS (Smaczniak et al. 2012, Nat Protoc 7: 2144-2158). […] In order to confirm this interaction, we used bimolecular fluorescence complementation (BiFC).

[2] = biological target: T1, PsbO1, photosystem II subunit …; experiment: Co-IP with anti-PsbO antibody and Protein A beads, immunoblot with anti-HA

T1 sequence (P23321 86-332 limits assumed): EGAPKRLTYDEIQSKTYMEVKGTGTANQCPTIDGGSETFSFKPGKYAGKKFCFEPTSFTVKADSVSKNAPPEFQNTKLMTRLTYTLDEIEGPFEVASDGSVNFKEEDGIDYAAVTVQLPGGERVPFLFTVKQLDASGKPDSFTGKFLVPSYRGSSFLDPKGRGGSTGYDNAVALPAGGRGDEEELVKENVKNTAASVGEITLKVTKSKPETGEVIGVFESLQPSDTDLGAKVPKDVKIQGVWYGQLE

| Binder | binding result [1] | binding result [2] |
| --- | --- | --- |
| B1 | binds | – |
| B2 | – | no binding |
